According to patent US20210163606A1 (ATYR PHARMA, published 2021):
Positions count from the first letter of the chain named.

T1: human NRP2 variant 2 (hNRP2), untagged, on Expi293 cells (Human, UniProt O60462 23-931)
T1 construct: Transcript NM_003872 / NP_003863.2; also called Expi293-hNRP2 clonal cells; Human NRP2a (version 2)
T1 sequence: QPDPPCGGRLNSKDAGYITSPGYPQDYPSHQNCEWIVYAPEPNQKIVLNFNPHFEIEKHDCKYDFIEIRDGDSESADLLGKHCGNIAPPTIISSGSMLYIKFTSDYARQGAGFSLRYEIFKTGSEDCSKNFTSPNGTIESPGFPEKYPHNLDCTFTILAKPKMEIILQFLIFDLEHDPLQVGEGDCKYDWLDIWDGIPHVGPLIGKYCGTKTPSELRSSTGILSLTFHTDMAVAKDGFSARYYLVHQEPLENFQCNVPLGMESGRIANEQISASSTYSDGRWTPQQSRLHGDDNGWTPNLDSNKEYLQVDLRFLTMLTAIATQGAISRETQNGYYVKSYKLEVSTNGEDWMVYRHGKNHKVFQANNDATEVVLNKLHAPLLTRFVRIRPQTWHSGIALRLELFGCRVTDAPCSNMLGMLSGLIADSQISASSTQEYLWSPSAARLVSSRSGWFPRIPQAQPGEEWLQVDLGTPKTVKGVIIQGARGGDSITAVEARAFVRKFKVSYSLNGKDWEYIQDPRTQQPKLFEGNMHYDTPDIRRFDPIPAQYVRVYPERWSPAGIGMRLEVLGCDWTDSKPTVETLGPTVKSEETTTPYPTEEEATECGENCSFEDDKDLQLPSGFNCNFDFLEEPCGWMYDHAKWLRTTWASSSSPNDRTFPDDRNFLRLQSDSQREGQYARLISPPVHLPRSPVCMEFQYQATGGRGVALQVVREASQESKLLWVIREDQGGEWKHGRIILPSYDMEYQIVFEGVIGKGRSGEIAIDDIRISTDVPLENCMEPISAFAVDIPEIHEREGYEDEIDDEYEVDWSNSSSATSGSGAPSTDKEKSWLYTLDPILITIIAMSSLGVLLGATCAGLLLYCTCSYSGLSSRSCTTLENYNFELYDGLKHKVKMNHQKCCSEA

B1: aNRP2-10v13 (antibody, V domains shown)
VH: EVQLVQSGAEVKKPGATVKISCKVSGFNIKDYYVHWVQQAPGKGLEWMGRIDVHDDETKYAPKFQGRVTITADTSTDTAYMELSSLRSEDTAVYYCATPIYGAREAWFAYWGQGTLVTVSS
VL: DIQMTQSPSSLSASVGDRVTITCTASSSVSSSYLHWYQQKPGKAPKLLIYRTSNLASGVPSRFSGSGSGTDFTLTISSLQPEDFATYYCHQYYRSPPTFGGGTKVEIK
B2: aNRP2-14v9 (antibody, V domains shown)
VH: QLQLVESGGGVVQPGRSLRLSCTVSGFSLTSYGVHWVRQAPGKGLEWVGLIWSGGSTDYSPAFISRFTISEDNSKSTVYLQMNSLRAEDTAVYFCARNSYSSGYYAMDYWGQGTTVTVSS
VL: DIQLTQSPSFLSASVGDRVTITCKASQNVGHAVAWYQQKPGKAPKLLIYSASNRYTGVPSRFSGSGSGTEFTLTISSLQPEDFATYYCQQYSRYPPYTFGGGTKVEIK
B3: aNRP2-14v10 (antibody, V domains shown)
VH: B2 VH
VL: B2 VL with H31T, Y91R
B4: aNRP2-28v2/4 (antibody, V domains shown)
VH: QSVKESEGGLFKPTDTLTLTCTVSGFSLSTYSISWVRQAPGNGLEWIGIIGDAGGIIYATWAKSRSTITRSTALNTVTLKMTGLTAADTATYFCARDGTAFDIWGPGTLVTVSS
VL: AYDMTQTPASVEVVVGGTVTIKCQASQSIYSKLGWYQQKPGQPPKLLIYRASTLASGVSSRFKGSGSGTEYTLTISGVQCDDAATYYCQQDYSYINVDNIFGGGTEVVVK
notes: Mouse surrogate antibody; also called aNRP2-28v4
B5: aNRP2-11v7 (antibody, V domains shown)
VH: QVQLVQSGAEVKKPGASVKVSCKASGYTFTSFGISWVRQAPGQGLEWIGEIYPRSGNTYYNENFKGRATMTADKSTSTAYMELRSLRSDDTAVYYCARSSGYYGSTPFPYWGQGTLVTVSS
VL: DIQMTQSPSSLSASVGDRVTITCRASQDISNYLNWYQQKPGKAVKLLIYYTSRLHSGVPSRFSGSGSGTDYTFTISSLQPEDIATYYCQQGNTLPWTFGGGTKVEIK
notes: also called aNRP22-11v7

Tests used:
[1] = target: T1, human NRP2 variant 2 (hNRP2), untagged, …; experiment: flow cytometry on Expi293-hNRP2 clonal cells
Experimental: Expi293-hNRP2 clonal cells were collected by centrifugation at 300 g for 5 minutes, and washed twice by DPBS (with calcium and magnesium, ThermoFisher Cat #14040133). Washed cells were added to a 96-well V-bottom plate (ThermoFisher Cat #1424572) at 100,000 cells/well in […] of DPBS added with Zombie Violet viability stain (Biolegend Cat #423114, diluted at 1:500). From this step on, cells were protected from light. Cells were kept at room temperature for 10 min and pelleted down at 300 g for 5 minutes at 4° C. Supernatants containing Zombie Violet were discarded, and without washing, 30 uL of antibodies diluted in the flow wash buffer (FWB, DPBS plus 2% FBS and 0.1% sodium azide to inhibit receptor internalization) were added to the cells. For anti-NRP2 antibody staining on Expi293-hNRP2 clonal cells, in-house human anti-NRP2 antibodies were tested at final concentrations of 0.006-100 nM at 4-fold dilutions. […] Binding was allowed to proceed on ice for 40-60 minutes. Cells were then pelleted at 300 g for 5 minutes at 4° C., supernatants removed, and cells washed twice by adding 150 μL of FWB and centrifuging the cells again in the same conditions. To detect a-NRP2 binding on the cell surface, Cy3-conjugated goat anti-human IgG Fc (Jackson ImmunoResearch Cat #109165098) was added to the cells at a final concentration of 3 μg/mL in 30 μL of FWB. After 30-40 minutes of incubation on ice, cells were pelleted at 300 g for 5 minutes at 4° C. and supernatants removed, and the cells were washed twice as described previously. Cells were then resuspended in FWB before acquisition on the Cytoflex. Gains were set based on staining controls. Cells were collected with typically more than 10,000 events. Cells were then analyzed on FlowJo analysis software by excluding dead cells and gating singlets. The statistical analysis was performed using GraphPad Prism. A four-parameter variable-slope curve was fitted to the data ([agonist] vs. response) using non-linear regression, and the EC₅₀ and r2 for each curve was determined.
The EC₅₀ of four anti-NRP2 antibodies directed against different domains of NRP2, were measured for binding to Expi293-hNRP2 clonal cells (see Table E1 and FIG. 3).

[2] = target: T2, Cynomolgus NRP2 (aa23-854) with C-terminal Fc-tag (cynomolgus monkey); experiment: SPR (ProteOn XPR36), antibody captured on anti-human Fab-kappa, cyno NRP2-Fc as analyte, bivalent analyte fit
T2 construct: range 23-854; sensorgrams fitted to a bivalent analyte model; also called Cynomolgus NRP2 antigen protein
Experimental: Anti-NRP2 antibody binding and affinity measurements. […] SPR experiments were conducted on a Bio-Rad ProteOn XPR36 Protein Interaction Array instrument. Biotinylated anti-human antibody (ThermoFisher Cat #7103302100) was immobilized on ProteOn NLC sensor chips. Anti-NRP2 antibodies were subsequently flowed over and captured by the anti-human antibody. Cynomolgus NRP2 antigen protein was flowed over the captured antibody at varying concentrations (150, 50, 16.67, 5.56, 1.85 nM). The sensor chip surface was regenerated between each analyte run to remove anti-NRP2 antibodies and NRP2 protein. Data was double referenced against a surface with no anti-NRP2 antibody captured (immobilized anti-human antibody only) and a buffer only blank. Affinity constants were derived by globally fitting sensograms to a bivalent analyte interaction model in the ProteOn manager software. For each anti-NRP2 antibody, data from the multiple NRP2 concentrations was fit as a single data set with dissociation rate constant (kd), association rate constant (kₐ) and Rₘₐₓ values as global parameters. The reported binding affinity is the equilibrium dissociation constant (KD) calculated from kd/kₐ. [0681] Running buffer: 50 mM HEPES, 300 mM NaCl, 5 mM CaCl₂, 0.005% Tween-20, pH 7.4 [0682] Immobilized antibody: CaptureSelect Human Fab-kappa Kinetics Biotin Conjugate, Thermo Fisher Cat #7103302100 [0683] Antigen: Cynomolgus NRP2 (aa23-854) with C-terminal Fc-tag [0684] Regeneration buffer: 10 mM glycine pH 2.0

[3] = target: T3, cynomolgus monkey NRP2 on transfected Expi293 cells (cynomolgus monkey); experiment: flow cytometry on Cyno NRP2-transfected Expi293 cells
T3 construct: whole, on cells; Plasmid bought from Origene; transient transfection; also called Cyno NRP2
Experimental: Binding of a-NRP2 to cynomolgus monkey NRP2-transfected Expi293 cells. Cynomolgus monkey (cyno) NRP2-transfected Expi293 cells were collected by centrifugation at 300 g for 5 minutes, and washed twice by DPBS (with calcium and magnesium, ThermoFisher Cat #14040133).
Washed cells were added to a 96-well V-bottom plate (ThermoFisher Cat #1424572) at 100,000 cells/well in 50 μL of DPBS added with Zombie Violet viability stain (Biolegend Cat #423114, diluted at 1:500). From this step on, cells were protected from light. Cells were kept at room temperature for 10 min and pelleted down at 300 g for 5 minutes at 4° C. Supernatants containing Zombie Violet were discarded, and without washing, 30 uL of antibodies diluted in the flow wash buffer (FWB, DPBS plus 2% FBS and 0.1% sodium azide to inhibit receptor internalization) were added to the cells. For a-NRP2 staining on Cyno NRP2-transfected Expi293 cells, in-house human anti-NRP2 antibodies were tested at final concentrations of 0.006-100 nM at 4-fold dilutions. For each test, NRP2 over-expression on the cell surface was validated by a-NRP2 staining (10 μg/mL R&D #AF567 a-NRP2) in separate wells. Binding was allowed to proceed on ice for 40-60 minutes. Cells were then pelleted at 300 g for 5 minutes at 4° C., supernatants removed, and cells washed twice by adding 150 μL of FWB and centrifuging the cells again in the same conditions. To detect a-NRP2 binding on the cell surface, Cy3-conjugated goat anti-human IgG Fc or AF647-conjugated donkey anti-goat IgG (Jackson ImmunoResearch Cat #109165098 & 705605147) was added to the cells at a final concentration of 3 μg/mL in 30 μL of FWB. After 30-40 minutes of incubation on ice, cells were pelleted at 300 g for 5 minutes at 4° C. and supernatants removed, and the cells were washed twice as described previously. […] Cells were then analyzed on FlowJo analysis software by excluding dead cells and gating singlets.
The EC₅₀ of three anti-NRP2 antibodies, each against a distinct domain of NRP2, were measured for binding to Cyno NRP2-transfected Expi293 cells (see Table E2 and FIG. 4).

[4] = target: T1, human NRP2 variant 2 (hNRP2), untagged, …; experiment: flow cytometry as described for Table E1 (Expi293-hNRP2 cells); the cells for this surrogate are not said separately

Row | Binder | EC50 [1] | Kd [2] | EC50 [3] | EC50 [4]
1 | B1 | 0.65 nM | – | – | –
2 | B2 | 1.2 nM | 0.017 nM | 2.8 nM | –
3 | B3 | 47.5 nM | – | – | –
4 | B4 | – | – | – | 1.58 nM
5 | B5 | 6.3 nM | 12 nM | 5.7 nM | –
